Here are results for 15 sequences from the DeepSol protein solubility set.

This data set can be described thus: soluble on expression in E. coli; label from the status in PepcDB or PDB records.
Take “MGSDKIHHHHHHMGISNIKQLYSKWKSLQPLKPEDLKRWNDKFKLEFNYNSNHLEGNTLTYGQTKLLLMFGETSGNASLKDYEEMKAHNVGLEMIKQEAQDKERPLTESFIRELNRTILVQDYWKNAKTPDGQDIRMQIKVGEYKSRPNSVLTATGEVFSYASPEETPAFMTSLVDWYNLEADKGILTPVELAALLHYRYIRIHPFEDGNGRIARLLVNFVLHRYGYPMIVIHSEDKSNYLNILHQCDVEAGLTPSDGANATLNDILPFVNYLSSCLIRSLTLAIKAAKGESIEEEGDFDKKIAMLQRRYSDKAIEKSSRSVEQARSAFFELAVYVEQKISGLQKLFDRTFITNTPTWNMARKINTPNPDEPIIQSHILYTKSKEYSFVEDIIRLSKKSQVDYFKLKYDAVTFHFNHCRYAGDNTFDFPFCIYIQYLSDGCEISCDITSDSVKLSYNPDVLAEEGKEYMDTACNELLKLLEEKMNDKSPEN”: the “soluble on expression in E. coli” value is on record as “not soluble”. For “MGSDKIHHHHHHMKRTTKSIQAEIAKGAFRPHTALSTMALAYYQQETTSFAKNMFPVCPVQLSSDNYYVFDKEDLLRDNWNRKPAYGSVDPAVISEHTENYACHVDQMMMGIDNIRQTDLNRRQGPHTKDPRQQRTKVIATQANIHQDAEFSKSFMRKGVWKNEATGTDSVSVTSGQFIKFSNGNSDPIAFFQNKMTEINEETGRTPNRLGLGVNVYNALKEHPAILERVKYGGSTPNPAKVNLNVLAQLFEIDRIVLDRTVQNKAGLGQNADMGYIGDPNSFLLAYATDTPSVEEPSAGYIFTWDMLENGILLPILNYPGAPGTHSELVEGLMAYDMKKTADDLAFFGCDAV”, the “soluble on expression in E. coli” value is “not soluble”.

On to “MGDIMQQQLTQALEAYLQKLDDEARIEAINAFRQVLHHYSPFRSQPVDCVLWVKQELVAPNDYNPNNVAPPEKRLLQTSLEADGFTQPVVVIQQRPQAYTIVDGFHRHELACSKAALKKTLKGYLPVTCLTSEAASRDGLMAATIRHNRARGRHQIHAMSEIVRELTQLGWTPQKIGKELGMDADEVLRLKQISGLTEMFAGRQFSQAWTIK”, for which the “soluble on expression in E. coli” value was “not soluble”.

Turning to “DNYVGGIPLTSAHSGTVSGGVYCDSYYGMGDQEAKASNTIEKTFTVPDNANVEWAMLLTNVYCGHMQNNYQGKAKVDFNGKNLGTETLNVPYTYSYNGGNGHVQVNDHVNRVTSDYMMYYDVTGLVKAGKNTAVVKTDPLDSSFDGRIRLVTLVVAYNDGSKKTIWYQVNRGHDADSYYSDDEMNENYIGSTAFQAALPEGSSLTDSKLTLVYQASSDGAYAFNGNALSSGTPQGTFSGSNTWDVKDSLKSSGTNTLTYDRTASFYKSVLGILTAEYTTSSSGDSTDDTPADNTTDNGSAGDTTDDISSDNTTNDTSSDNTTSDVPAGNTTNDTPADNTTDAKFSADLGVQAIKVSHNSAAKAWKNLVNTVNVTVINNGPEKAGSFALELYSEGSLLESKPINGLANGATEAVEFVWKPEDAKNYTLRAVVVPGSTINDANATNNELSKTQEVMHNGYIGDKPLETYLHGTVKGNIIYDYGNSSYVKVSSGDVYTAGHSLSLPEGAIVKYARLYNFWTWSATGSSGVIPSMSLDFAGSSLTPEAEYADQKGWGQYDYPTGTWAYNVTGLVSGSGNYITTVKNTNSDAENSFCIDGIALLVVYEDASGKETQYWINEGCDAVSTMSSSGGLTPDEATVKIAFAGDSIDLGNVDNARLWTTVQSGGHEGIALKFNEMSISGVYDSTPSSNLDIDEARDVTSYLLSQNNEAQIIAPSVTDNSGDYMIPSSAILAVSYKSETTDDTNITDDTNVTDDTNVTDGTNVTDDTNVTDGTNVTNDTNVTNDTNVTNDTNVTNDTNVTNDTNVTNDTNVTDDTNVTDGTNVTDGTNVTIDTNVTIDTNVTIDTNVTDNTNVTDDTNMKDDTNVTLKVNIIPVISLTVSPDSLDFGTVSPGTPSESLPLALKNNGGISIKVTAEVHDQENGPFATGLLLDQNIWSNYSKVLAAESAETSQAQLDLPL”, the “soluble on expression in E. coli” value is on record as “not soluble”. To “MSKIEIYNREEALLLIEKLNNSNIEIPILLMLTLGLRLGEATGLRWTDVDLNIGSVSVSQTLIYANNKIEFKEPKTSKSRRTLSAPDELIEKLKIEKLRQNKLKLQGILKNENNLVCLNKDYNPFLPATLRKSFHRFIKKNNLKNIRMHDLRHTNASLLLLGGTNMKVVSERLGHTDIQITMNRYSHVLEEMDKKASDNLSKILEHHHHHH” belongs “not soluble”.

Consider “MGSDKIHHHHHHMAYNDSTKQYQRMLASYTRTGIETAIPGTKEEGIMRYRTMIYTIVNESLSTSYPLTRQLLTAQEWDDTVHRYFSTHACTSPYLWRMPLEFYEYIQEEQSALLIKYPCLSDLLLFEWVEIEVFMMEDEEVLHKTEGAVETDALVLNPACAVQYFQYPVYAKRAAEITPADAAHYFMLTHRNPETGNVAFLEIAPMFARMFEWLTEEAMSVDQLISRFTEESQLALAADSRINIVSFFKNCLSKRIILGFN”, for which the “soluble on expression in E. coli” value is on record as “not soluble”.

Turning to “MKRKVSVYDSSKDKTLGQVVKGESPIWIRVAMAILRVWFFIYDCLNYLPYQLFNSPTEKLRKSERVKANWVDDRDGPIRNIQGHASETFPGKDTVDKVWRKCVELYDESPCLGTRQLIEVHEDKQPGGRVFEKWHLGEYVWQSYKEVETQVARLAAGIKDLAHEEQNPKVVIFAETRADWLITALACFRANVTIVTVYATLGEDAIAHAIGETEATILVTSSELLPKIVTLGKKCPTLKTLIYFAPVDQKAPAPELAPFRDQFKHVLSLSGLLTRNQEQVKESTAVKSDIALIMYTSGTTGQPKGVILLHQNVVAALLGQGDGVGIICNADTYIGYLPLAHILELDAELTCLTKGAKVGYSSPLTLHDRASKIQKGTHGDCHALRPTLMAAVPAIMDRIFKAVSEEVAASPRFMQELFKLNYERKRSRYLEGYCSPFLDRIVFKKIRRLLGGKLRGVLSGGAPLNAETQRFMNICMCCPVVQGYGLTETCGAACVADINDLSTGTVGPPVRCSDIALREWSEGGYSPFNDPPQGEILISGENISPGYYKQPEKTAEDFITYKGKVYFATGDIGQKRDDGSLLIIDRKKDLVKLQHGEYVSLAKVECALLNCPIVDNICVYGSGMEDSVVALVVPNQKHLEKIAEAEGVSTSEMKTMCEDKKVIAAYKKQLEEHAKKSKLSRSEIPAAIHLCPEIWTPDTGLLTEALKLKRKPIQMAYQKTLDDLYKQLKKN”, the “soluble on expression in E. coli” value is on record as “not soluble”. Next, “MGSDKIHHHHHHMKIIILGAGQVGGTLAENLVGENNDITIVDSDKNKLRSLQDKYDLRVVVGHGAHPDVLREAGAEDADMLIAVTNSDECNMSACQIAYTLFGTPTKIARIRSEQYLHMQERLFIDSETKNSDNRTRGGFVIDELIAPEQLVTSYIQRLVEYPGALQVLEFAEGKLSLVAVRAYYGGPLVGNALAALREHMPNIDTRVAAIFRQGRPIMPRGTTIIEADDEVFFVADSRHIRAVMSEMQKLDNSYRNIMIAGGGNIGLGLAKKLERNHSVKLIEHKAERAEALSEKLQNTTVFCGDASDQELLLEEHIDQTDVFIAVTNDDEANIMSALLAKRMGAKKVMVLIQREAYVDIVQEANIDIAISPQQATISALLTHIRQGDICNVYSLRRGAAEAIEAIAHGDPSTSKVVGKQIGEIRLPPGTTIGAIVRNDEVLMAHDKTVIEQGDHVILFLVNKKFIGEVERLFQPSAFFF”: “not soluble”; “MGSSHHHHHHSSGRENLYFQGHMNRTLYTLLFHLGLPLVALRLWWRARQAPAYAKRIGERFSLSLPEVPPGGIWVHAVSVGESIAAAPMVRALLERHPQLPVTVTCMTPTGSERIRALFGEQVRHCYLPYDLPWAAARFLDRVRPRLAVIMETELWPNHIHACAVRGIPVALANARLSERSARGYARFAGLTRPMLAELSWIAVQTEAEAERFRRLGARPECVSVTGSIKFDLRIDPQLPLAAAALREEWDATARPLWIAASTHAGEDEIVLAAHRRLLETRPDALLILVPRHPERFAGVHELCRREGFATVRRSGGEPVARATQVLLGDTMGELLFLYALADIAFVGGSLVPNGGHNLLEPAALGKPVFAGPHLFNFLDIAAQLRDAGALLEVTDAGELCDGLARLWAQPEVATAMATAGEKVLRNNQGALERLLAGLARLLGRGG”: “soluble”. To “VQLSPDLLATLPEPASPGRQACGRRHKKRTFLRPRIIGGSSSLPGSHPWLAAIYIGDSFCAGSLVHTCWVVSAAHCFSHSPPRDSVSVVLGQHFFNRTTDVTQTFGIEKYIPYTLYSVFNPSDHDLVLIRLKKKGDRCATRSQFVQPICLPEPGSTFPAGHKCQIAGWGHLDENVSGYSSSLREALVPLVADHKCSSPEVYGADISPNMLCAGYFDCKSDACQGDSGGPLACEKNGVAYLYGIISWGDGCGRLHKPGVYTRVANYVDWINDRIRPPRRLVAPS” belongs “soluble”; to “MPTVLRWTRTMCKRPTCRVRQAWLVLPITGRWPSGGVSMKHACMLDSALPKPSQHSLRRQLNAIKREQFPWMSEVTKNAPQMAIIQLGRAFQNFFAGRAKYPKFRKKGMHDRFTLTNDQFDLEASRIRIPRLGWVRMRETLRFAGKIMLATVSRVAGRWFVSITVDVPDPSHLPQAENQGTVGVDLGVLVLATLSTGETVCGPRPHRALLGRVCRLSRSVLRKVKGSANRHKAKATLANLHARIAAIRLDALHTLTSDLTRRFHTIGIENLNVKGMLRNRHLARSIADIGFFEFRRQLEYKAMMRGGQVVVANRFFASSKRCLTCGHTLNELPLSVRQWACPACGARHDRDVNAAVNLKNMAVSSTVSACGEEGAGPRRKTAVGEAGSQLLEHHHHHH”, “not soluble”.

Take “MIEENLKQKIHDKFVAAKKNGHLKVTHAESKKLKDPQTTTQYWVTFAPSLALKPDANKNSDSKAEDPFANPDEELVVTEDLNGDGEYKLLLNKFPVVPEHSLLVTSEFKDQRSALTPSDLMTAYNVLCSLQGDKDDDVTCERYLVFYNCGPHSGSSQDHKHLQIMQMPEKFIPFQDVLCNGKDHFLPTFNAEPLQDDKVSFAHFVLPLPESSDQVDEDLLAMCYVSLMQRALTFFQDWTNESPELTKSYNVLLTKKWICVVPRSHAKSGPPLMLNINSTGYCGMILVKDREKLENLTEDPHLVDKSLLQCGFPNTAGQKPTEYHY”: the “soluble on expression in E. coli” value is “not soluble”. Next, “MTTPLAQRIKSLIRLNGPLSVTDFFSLCLADPEHGYYKSREPFGRSGDFITAPEVSQLFGEMLGVFVVHAWQRHGAPAQTQLVEIGPGRGTMMSDMLRVIRRIAPPLYETMRVHLVETSPRLSAIQKETLTAHADRLTWHDSFDDVPEGFLLLVANELFDAIPIRQFVRTPQGFRERVVSLDANGELVFSTGLAGIDPTLLPPQPERQQLGTVFEVSPAREAVMTAICQRLSVHGGTALAIDYGHLVAGYGDTLQAMRNHAFDPPLAHPGEADLTSHVDFESLVKTAQATGVHVNGALRQGDFLHGLGLKERASALAAKATPDQTLEIAEAVNRLAGEGAGKMGELFKVIAVSSPALHLLPFRAVDLEHHHHHH”: “soluble”; “MFEFKHIKAFDRAFADNPGPMVVFATPGMLHAGQSLQIFRKWAGNEKNMVIMPGYCVQGTVGHKILSGQRKLEMEGRQVLEVKMQVEYMSFSAHADAKGIMQLVGQAEPESVLLVHGEAKKMEFLKQKIEQELRVNCYMPANGETVTLPTSPSIPVGISLGLLKREMAQGLLPEAKKPRLLHGTLIMKDSNFRLVSSEQALKELGLAEHQLRFTCRVHLHDTRKEQETALRVYSHLKSVLKDHCVQHLPDGSVTVESVLLQAAAPSEDPGTKVLLVSWTYQDEELGSFLTSLLKKGLPQAPS”: “soluble”. Next, “MAHHHHHHMEAPAVYCVSDAAASLTMADDWIRGLSRQRHRSMCEVDAVFPVSRTRERTEMDEAETASSYSDSVTSVPTNRLQLHMMHRRRLYKQYAMDLSMWADTHSYYQLMMWCHDHHVFVHPTVEMVRHRSAFREHVFEVKEDVDAFTPLLAIPEDLIIGFKDANTESSDPSASTDDRNNLYDAKREAEFHKLNTGENSNADICQFFFASLGMIVSDLITAKSSPLTDPRHLFAELLSKVPTLQNAPYFDEEVVFDSNETCLADVLLQMIRNYINGGPLVNKVPLHELRWAVSVSLSHSTPLSIGAVRSIGIVPVVHLFPHGGTATNAYVVARTSRDKSAEKMAIFFREKFGYDFQGQANAKWIYVVPERPLKAGEAINLQVMAPVCEKDSEAEQMWRLSCGTVPESYMSSAQASARQEAATRFIVEQGEALWKASRAKRLL”: “not soluble”.
